# Test: yeast display, Sf9 membrane polyspecificity reagent, FACS + sequencing; frameworks hold sequencing errors
# Procedure, shortened: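 After 36–48 hours of galactose induction, yeast (Saccharomyces cerevisiae BJ5465) displaying a synthetic nanobody library were stained at 4 °C for 1 hour with 10% biotinylated, detergent-solubilized Sf9 membrane reagent. Streptavidin microbeads enriched the stained cells before FACS sorting into low and high (top ~1%) gates on anti-HA and streptavidin fluorescence. Each clone's polyreactivity label reflects its gate of origin.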
row,Sequence,polyreactivity (PSR sort gate)
1,QVQLVESGGGLVQAGGSLRLSCAASGRTFVIYAMGWYRQAPGKASELVAGIDSGTSTYADSVKGRFTISRDNAKNTVYLQMNSLKPEDTAVYYCAADFAPDGSGWYIPGDYDSWGQGTQVTVSS,low polyreactivity
2,QVQLVESGGGLVQAGGSLRLSCAASGRTFVLNAMGWYRQAPGKERELVAAITLGGGSTYADSVKGRFTISRDNAKNTVYLQMNSLKPEDTAVYYCAADFHYPDFEYWGQGTQVTVSS,low polyreactivity
3,QVQLVESGGGLVQAGGSLRLSCAASGRTFVPNAMGWYRQAPGKERELVAAISWSGDSTYYADSVKGRFTISRDNAKNTVYLQMNSLKPEDTAVYYCAADPFFGVSIGGLKYHFDYWGQGTQVTVSS,low polyreactivity
4,QVQLVESGGGLVQAGGSLRLSCAASGRTFVPNAMGWYRQAPGKERELVARISSGDSTYYADSVKGRFTISRDNAKNTVYLQMNSLKPEDTAVYYCAASGRQNGYGRRQYYYWGQGTQVTVSS,high polyreactivity
5,QVQLVESGGGLVQAGGSLRLSCAASGRTFVPYAMGWYRQAPGKERELVAAISARGSSTYYADSVKGRFTISRDNAKNTVYLQMNSLKPEDTAVYYCNAVGARVASATGMEYWGQGTQVTVSS,high polyreactivity
6,QVQLVESGGGLVQAGGSLRLSCAASGRTFVPYAMGWYRQAPGKERELVAAISSGGDTNYADSVKGRFTISRDNAKNTVYLQMNSLKPEDSAVYYCAKDLTQIYYGDDYWGQGTQVTVSS,low polyreactivity
7,QVQLVESGGGLVQAGGSLRLSCAASGRTFVRNAMGWYRQAPGKERELVAAISGSAGRTYYADSVKGRFTISRDNAKNTVYLQMNSLKPEDTAVYYCAKDTTVYGYYYWGQGTQVTVSS,high polyreactivity
8,QVQLVESGGGLVQAGGSLRLSCAASGRTFVRYAMGWYRQAPGKERELVAAISQSGGDTYYADSVKGRFTISRDNAKNTVYLQMNSLKPEDTPVYYCAARSDDVSRYGYWGQGTQVTVSS,low polyreactivity
9,QVQLVESGGGLVQAGGSLRLSCAASGRTFVRYAMGWYRQAPGKERELVAAISRTGGTTYYADSVKGRFTISRDNAKNTVYLQMNSLKPVDTAVYYCNADPFYKYGYWGQGTQVTVSS,high polyreactivity
10,QVQLVESGGGLVQAGGSLRLSCAASGRTFVRYAMGWYRQAPGKERELVAAISWSGGSTYYADSVKGRFTISRDNAKNTVYLQKNSLKPEDTAVYYCAAVDETPSSHEEDYWGQGTQVTVSS,high polyreactivity
11,QVQLVESGGGLVQAGGSLRLSCAASGRTFVRYAMGWYRQAPGKERELVARITSRGTSTYYADSVKGRFTISRDNAKNTVYLQMNSLKPEDTAFYYCNKVRTFRDKSRYDYWGQGTQVTVSS,low polyreactivity
12,QVQLVESGGGLVQAGGSLRLSCAASGRTFVRYTMGWYRQAPGKERELVAAISGSGSSTFYADSVKGRFTISRDNAKNTVYLQMNSLKPVDTAVYYCAARVRRVARDPYDYWGQGTQVTVSS,high polyreactivity
13,QVQLVESGGGLVQAGGSLRLSCAASGRTFVSNALGWYRQAPGKERELVAAISSSGGSTYYADSVKGRFTISRDNAKNTVYLQMNSLKPEDPAVYYGATYPLYSKYRYDHWGQGTQVTVSS,high polyreactivity
14,QVQLVESGGGLVQAGGSLRLSCAASGRTFVSNAMGWYRQAPGKERELVAAISVRGGRTYYADSVKGRFTISRDNAKNTVYLQMNSLKPEDTAVYYCNAVYRTYEYYWGQGTQVTVSS,high polyreactivity
15,QVQLVESGGGLVQAGGSLRLSCAASGRTFVSNAMGWYRQAPGKERELVAVITGIGGNTYYADSVKGRFTISRDNAKTTVYLQMYSLKPEDTAVYYCAADQIYSFYPVYGSWIYSMYYWGQGTQVTVSS,low polyreactivity
16,QVQLVESGGGLVQAGGSLRLSCAASGRTFVSYAMGWYRQAPGKERELVAAINGNGASTRYADSVKGRFTISRDNAKNTVYLQMNSLKPEDTAVYYCNTGRRFYGYNYWGQGTQVTVSS,high polyreactivity
17,QVQLVESGGGLVQAGGSLRLSCAASGRTFVTYAKGWYRQAPGKERELVAAISASGGSTYYADSVKGRFTISRDNAKNTVYLQMNSLNPEDTAVYYCAKTYFLATPYGYWGQGTQVTVSS,low polyreactivity
18,QVQLVESGGGLVQAGGSLRLSCAASGRTFVTYAMGWYRQAPGKERELVAAISASGGSTYYADSVKGRFTISRDNAKNTVYLQMNSLKPEDTAVYYCAKTYFLATPYGYWGQGTQVTVSS,low polyreactivity
19,QVQLVESGGGLVQAGGSLRLSCAASGRTFVVYAMGWYRQAPGKERELVAAISRGGSRTYYADSVKGRFTISRDNAKNTVYLQMNSLKPEDTAVYYCAKVIPAYPDSDYNYWGQGTQVTVSS,high polyreactivity
20,QVQLVESGGGLVQAGGSLRLSCAASGRTFVWNVMGWYRQAPGKEREFVAAISGGSTYYADSVKGRFTISRDNAKNTVYLKMNSLKQEDTPVYYCAAASKLHPRYEYWGQGTQVTVSS,low polyreactivity
21,QVQLVESGGGLVQAGGSLRLSCAASGRTFVWNVMGWYRQAPGKEREFVAAISGGSTYYADSVKGRFTISRDNAMNTVYLEMNSLKPEDTAVYYCADASKLHPRYEYWGQGTQVTVSS,low polyreactivity
22,QVQLVESGGGLVQAGGSLRLSCAASGRTFVYNAMGWYRQAPGKERELVAAIDGGGDRTYYADSVKGRFTISRDNAKNTVYLQMNSLKQEDTAVYFCARDPGDTYYYSYPEGDYWGQGTQVTVSS,low polyreactivity

row,Sequence,polyreactivity (PSR sort gate)
1,QVQLVESGGGLVQAGGSLRLSCAASGRTFVYNAMGWYRQAPGKERELVAAISFGGGNTYYADSVKGRFTISRDNAKNTVYLQMNSLKPEYTAVYYCAARAGAGPLDYDYWGQGTQVTVSS,low polyreactivity
2,QVQLVESGGGLVQAGGSLRLSCAASGRTFVYNAMGWYRQAPGKERELVAAISSSGGSTRYADSVKGRFTISRDNAKNTVYLQMNSLKPEDTAVYYCNRLRYSNRYDSWGQGTQVTVSS,high polyreactivity
3,QVQLVESGGGLVQAGGSLRLSCAASGRTFVYNAMGWYRQAPGKERELVAAITRSGGRTYYADSVKGRFTISRDNAKNTVYLQMNSLKPEDTAVYYCSARISRWYAYGTDIKEGDYWGQGTQVTVSS,low polyreactivity
4,QVQLVESGGGLVQAGGSLRLSCAASGRTFVYNAMGWYRQAPGKERELVAGITNGGSTNYADSVKGRFTISRDNAKNTVYLQMNSLKPEDTAVYYCAADSRVYPYYFGDFGYWGQGTQVTVSS,low polyreactivity
5,QVQLVESGGGLVQAGGSLRLSCAASGRTFVYNAMGWYRQAPGKERELVATIRSSGGSTYYADSVKGRFTISRDNAKNTVYLQMNSLKPEDTAVYYCAARWRPYGKFYYWGQGTQVTVSS,high polyreactivity
6,QVQLVESGGGLVQAGGSLRLSCAASGRTFVYNAMGWYRQAPGKERQLVAGITNGGSTNYADSVKGRFTISRDNAKNTVYLQMNSLKPEDTAVYYCAADSRVYPYYFGHFGFWGQGTQVTVSS,low polyreactivity
7,QVQLVESGGGLVQAGGSLRLSCAASGRTFVYNAMGWYRQARGKEREFVAAISSGGGTNYADSVKGRFTISRDNAKNTVYLQMNSLQPEDTAVYYCAAGSVSIFRGYRDYYNPKEYDYCGQGTQVTVSS,low polyreactivity
8,QVQLVESGGGLVQAGGSLRLSCAASGRTFVYYAMGWYRPAPGKERELVAAISSRGGSTYYADSVKGRFTISRDNAKNTVYLQMNSLKPEDTAVYYCAAVKGPERPTSPYDYWGQGTQVTVSS,high polyreactivity
9,QVQLVESGGGLVQAGGSLRLSCAASGRTFVYYAMGWYRQAPGKERELVAAISSRGGSTYYADTVKGRFTISRDYAKNSVYLQMYSLKPEDTAVYYCAAVIGPERPTSPFDFWGQGTQVTVSS,high polyreactivity
10,QVQLVESGGGLVQAGGSLRLSCAASGRTFVYYAMGWYRQAPGKERELVAAITSVGSTYYADSVKGRCTISRDNAKNTVYLQMNSLKPEDTAVYSCAKDTWAYPYYWPYDDYWGHGTQVTVSS,low polyreactivity
11,QVQLVESGGGLVQAGGSLRLSCAASGRTFVYYAMGWYRQAPGKERELVARISSGGSTYYADSVKGRFTISRDNAKNTVYLQMYSLKPEDTAVYYCAADAWYVWEYWWQPEDDYWGQGSQVTVSS,high polyreactivity
12,QVQLVESGGGLVQAGGSLRLSCAASGRTFVYYAMGWYRQAPGKERELVASISSGGGSTNYADSVKGRFTISRDNAKNTVYLQMNSLKPEDTAVYYCAVDTPRYRYYRTSYDYWGQGTQVTVSS,low polyreactivity
13,QVQLVESGGGLVQAGGSLRLSCAASGRTFVYYTLGWYRQPPGKERELVARISAGGGITYYADSVKGRFTISRDNAKNTVYLQMNSLNREDTAVYYCAADYWFTYRRPAYEYAYWGQGTQVTVSS,high polyreactivity
14,QVQLVESGGGLVQAGGSLRLSCAASGRTFWAYAMGWYRQAPGKERELVAAITTSGGSTNYADSVKGRFTISRDNAKNTVYLQMNSLKPEDTAVYYCNADPTYHVVNGVGYLGQGTQVTVSS,low polyreactivity
15,QVQLVESGGGLVQAGGSLRLSCAASGRTFWAYAMVWYRQAPGKERELVADITNGGSTYYADSVKGRFTISRDNAKNTVYLQMNSLKPEDTAVYYCNALTHWAPASYEYDYWGQGTQVTVSS,low polyreactivity
16,QVQLVESGGGLVQAGGSLRLSCAASGRTFWFYTMGWYRQAPGKERELVAAISSGGSTNYADSVKGRFTISRDNAKNTVYLQMNSLKPEDTAVYYCNARFPVGPSEDAVWYYPKYDYWGQGTQVTVSS,low polyreactivity
17,QVQLVESGGGLVQAGGSLRLSCAASGRTFWFYTMGWYRQAPGKERELVADIRRSGGSTYYADSVKGRFTISRDNAKNTVYLQMNSLKPEDTAVYYCASDPRRLAAGYTRYVYWGQGTQVTVSS,high polyreactivity
18,QVQLVESGGGLVQAGGSLRLSCAASGRTFWGYTMGWYRQAPGKERELVAAITASGGSTRYADSVKGRFTISRDNAKNTVYLQMNSLKPEDTAVYYCASRGQYFTDYYYRGNYWGQGTQVTVSS,high polyreactivity
19,QVQLVESGGGLVQAGGSLRLSCAASGRTFWGYVMGWYRQAPGKERELVAAISRGDSTYYADSVKGRFTISRDNAKNTVYLQMNSLKPEDTAVYYCAKPGYYVRYGYWGQGTQVTVSS,high polyreactivity
20,QVQLVESGGGLVQAGGSLRLSCAASGRTFWIYAMGWYRQAPGKERELVAAITGSGGSTYYADSVKGRFTISRDNAKNTVYLQMNSLKPEDTAVYYCNARVPDSYKWSAYYSHDYWGQGTQVTVSS,low polyreactivity
21,QVQLVESGGGLVQAGGSLRLSCAASGRTFWKYAMGWYRQAPGKERELVAAITASGARTYYADSVKGRFTISRDNAKNTVYLQMNSLKPEDTAVYYCNAGSVSDRQMDYWGQGTQVTVSS,low polyreactivity
